# Patent US12295987B2, “Method of using a GIP/GLP1 co-agonist for diabetes” (Eli Lilly and Company, priority 2018, dated 2025)
# Numbered stars: 1 amine (or outer) side, 2 acyl side, 3 side chain; on linkers, the order of the positions; unused ones are H or OH. Square brackets hold non-standard residues; d marks the D form. Side chains are listed from the residue outwards. Ends that are not written are not given here. * marks the point of attachment. C20 diacid = O=C(O)CCCCCCCCCCCCCCCCCCC(=O)*; C18 diacid = O=C(O)CCCCCCCCCCCCCCCCC(=O)*; αMePhe(2-F) = C[C@](N)(Cc1ccccc1F)C(=O)O; γGlu = O=C(O)[C@H](CCC(=O)[*:2])N[*:1]; αMeL = CC(C)C[C@](C)(N)C(=O)O; AEEA = NCCOCCOCC(=O)O; Aib = CC(C)(N)C(=O)O
# Molecular target: T1, human gastric inhibitory peptide receptor (hGIPR) (Homo sapiens, UniProt P48546)
# T1 construct: expressed in transfected cells; host or cells: HEK293
# T1 sequence (P48546 22-466): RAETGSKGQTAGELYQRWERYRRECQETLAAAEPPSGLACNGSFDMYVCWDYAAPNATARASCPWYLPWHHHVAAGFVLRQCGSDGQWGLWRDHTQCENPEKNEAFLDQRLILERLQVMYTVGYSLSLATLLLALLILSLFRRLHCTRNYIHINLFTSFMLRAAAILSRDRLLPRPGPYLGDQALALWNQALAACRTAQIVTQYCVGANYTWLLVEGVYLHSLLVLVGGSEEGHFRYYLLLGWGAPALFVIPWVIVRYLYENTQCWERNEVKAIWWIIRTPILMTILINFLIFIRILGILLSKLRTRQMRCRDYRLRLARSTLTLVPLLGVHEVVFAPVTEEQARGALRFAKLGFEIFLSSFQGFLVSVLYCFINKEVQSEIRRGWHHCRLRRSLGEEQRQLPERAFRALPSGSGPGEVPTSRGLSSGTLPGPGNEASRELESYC
# Experiment: cAMP pharmacological functional assay in presence of 0.1% casein, hGIPR
# Assay type: cell-based
# Details: ratio of hGIPR to hGLP1R cAMP EC50 ratios
row,Substance,[hGIPR/hGLP1R] EC50 Ratio
1,"Y-Aib-EGT-αMeF(2F)-TSDYSI-αMeL-LDEK((2-[2-(2-Amino-ethoxy)-ethoxy]-acetyl)2-(γGlu)-CO—(CH2)18—CO2H)AQ-Aib-EFI-(D-Glu)-YLIEGGPSSGAPPPS-NH2 (YXEGTXTSDYSIXLDEKAQXEFIXYLIEGGPSSGAPPPS; Aib, alphaMe residues, C20 diacid lipidation, C-amide; (2)..(2) Xaa at position 2 is Aib; (6)..(6) Xaa at position 6 is alpha-MeF(2F); (13)..(13) Xaa at position 13 is alpha-MeL; MOD_RES (17)..(17) K at position 17 is chemically modified by conjugation of the epsilon-amino group of the K side chain with (2-[2-(2-amino-ethoxy)-ethoxy]-acetyl)2-(gamma-Glu)-CO-(CH2)18- CO2H; (20)..(20) Xaa at position 20 is Aib; (24)..(24) Xaa at position 24 is D-Glu; MO) [Peptide 1]",4.15
2,"Y-Aib-EGT-αMeF(2F)-TSDYSI-αMeL-LDEK((2-[2-(2-Amino-ethoxy)-ethoxy]-acetyl)2-(γGlu)-CO—(CH2)16—CO2H)AQ-Aib-EFI-(D-Glu)-YLIEGGPSSGAPPPS-NH2 (YXEGTXTSDYSIXLDEKAQXEFIXYLIEGGPSSGAPPPS; Aib, αMeF(2F), αMeL, D-Glu; lipidated K; amide; (2)..(2) Xaa at position 2 is Aib; (6)..(6) Xaa at position 6 is alpha-methyl-Phe(2F); (13)..(13) Xaa at position 13 is alpha-methyl-Leu; MOD_RES (17)..(17) Lys at position 17 is chemically modified by conjugation of the epsilon-amino group of the Lys side chain with (2-[2-(2-amino-ethoxy)-ethoxy]-acetyl)2-(gamma-Glu)-CO-(CH2)16- CO2H; (20)..(20) Xaa at position 20 is Aib; (24)..(24) Xaa at positi) [Peptide 221]",5.66
3,Y-Aib-EGTFTSDYSILLDKK((2-[2-(2-Amino-ethoxy)-ethoxy]-acetyl)2-(γGlu)-CO—(CH2)18—CO2H)AQ-Aib-AFIEYLIEGG-NH2 (Y[Aib]EGTFTSDYSILLDKK([AEEA-AEEA-γGlu-C20 diacid])AQ[Aib]AFIEYLIEGG-NH2; N-terminus assumed; SMILES CC[C@H](C)[C@H](NC(=O)[C@H](CC(C)C)NC(=O)[C@H](Cc1ccc(O)cc1)NC(=O)[C@H](CCC(=O)O)NC(=O)[C@@H](NC(=O)[C@H](Cc1ccccc1)NC(=O)[C@H](C)NC(=O)C(C)(C)NC(=O)[C@H](CCC(N)=O)NC(=O)[C@H](C)NC(=O)[C@H](CCCCNC(=O)COCCOCCNC(=O)COCCOCCNC(=O)CC[C@H](NC(=O)CCCCCCCCCCCCCCCCCCC(=O)O)C(=O)O)NC(=O)[C@H](CCCCN)NC(=O)[C@H](CC(=O)O)NC(=O)[C@H](CC(C)C)NC(=O)[C@H](CC(C)C)NC(=O)[C@@H](NC(=O)[C@H](CO)NC(=O)[C@H](Cc1ccc(O)cc1)NC(=O)[C@H](CC(=O)O)NC(=O)[C@H](CO)NC(=O)[C@@H](NC(=O)[C@H](Cc1ccccc1)NC(=O)[C@@H](NC(=O)CNC(=O)[C@H](CCC(=O)O)NC(=O)C(C)(C)NC(=O)[C@@H](N)Cc1ccc(O)cc1)[C@@H](C)O)[C@@H](C)O)[C@@H](C)CC)[C@@H](C)CC)C(=O)N[C@@H](CCC(=O)O)C(=O)NCC(=O)NCC(N)=O) [Peptide 51],3.97
4,"Y-Aib-EGTFTSDYSI-αMeL-LDSK((2-[2-(2-Amino-ethoxy)-ethoxy]-acetyl)2-(γGlu)-CO—(CH2)18—CO2H)AQ-Aib-AFIEYLIEGGPSSGAPPPS-NH2 (YXEGTFTSDYSIXLDSKAQXAFIEYLIEGGPSSGAPPPS; Aib, αMeL, lipidated Lys, C-terminal amide; (2)..(2) Xaa at position 2 is Aib; (13)..(13) Xaa at position 13 is alpha-methyl-Leu; MOD_RES (17)..(17) Lys at position 17 is chemically modified by conjugation of the epsilon-amino group of the Lys side chain with (2-[2-(2-amino-ethoxy)-ethoxy]-acetyl)2-(gamma-Glu)-CO-(CH2)18- CO2H; (20)..(20) Xaa at position 20 is Aib; MOD_RES (39)..(39) Ser at position 39 is amidated) [Peptide 52]",2.72
5,"Y-Aib-EGT-αMeF(2F)-TSDYSI-αMeL-LDHK((2-[2-(2-Amino-ethoxy)-ethoxy]-acetyl)2-(γGlu)-CO—(CH2)18—CO2H)AQ-Aib-EFI-(D-Glu)-YLIEGGPSSGAPPPS-NH2 (YXEGTXTSDYSIXLDHKAQXEFIXYLIEGGPSSGAPPPS; Aib, αMe residues, lipidated Lys, D-Glu, C-terminal amide; (2)..(2) Xaa at position 2 is Aib; (6)..(6) Xaa at position 6 is alpha-methyl-Phe(2F); (13)..(13) Xaa at position 13 is alpha-methyl-Leu; MOD_RES (17)..(17) Lys at position 17 is chemically modified by conjugation of the epsilon-amino group of the Lys side chain with (2-[2-(2-amino-ethoxy)-ethoxy]-acetyl)2-(gamma-Glu)-CO-(CH2)18- CO2H; (20)..(20) Xaa at position 20 is Aib; (24)..(24) Xaa at positi) [Peptide 230]",5.53
6,"Y-Aib-EGT-αMeF(2F)-TSDHSI-αMeL-LDEK((2-[2-(2-Amino-ethoxy)-ethoxy]-acetyl)2-(γGlu)-CO—(CH2)16—CO2H)AQ-Aib-TFI-(D-Glu)-YLIEGGPSSGAPPPS-NH2 (YXEGTXTSDHSIXLDEKAQXTFIXYLIEGGPSSGAPPPS; Aib, αMeF(2F), αMeL, D-Glu; C18 diacid lipidated K; amide; (2)..(2) Xaa at position 2 is Aib; (6)..(6) Xaa at position 6 is alpha-methyl-Phe(2F); (13)..(13) Xaa at position 13 is alpha-methyl-Leu; MOD_RES (17)..(17) Lys at position 17 is chemically modified by conjugation of the epsilon-amino group of the Lys side chain with (2-[2-(2-amino-ethoxy)-ethoxy]-acetyl)2-(gamma-Glu)-CO-(CH2)16- CO2H; (20)..(20) Xaa at position 20 is Aib; (24)..(24) Xaa at positi) [Peptide 169]",8.97
7,"Y-Aib-EGT-αMeF(2F)-TSDYSI-αMeL-LDEK((2-[2-(2-Amino-ethoxy)-ethoxy]-acetyl)2-CO—(CH2)18—CO2H)AQ-Aib-EFI-(D-Glu)-YLIEGGPSSGAPPPS-NH2 (YXEGTXTSDYSIXLDEKAQXEFIXYLIEGGPSSGAPPPS; Aib, αMeF(2F), αMeL, D-Glu; lipidated K; amide; (2)..(2) Xaa at position 2 is Aib; (6)..(6) Xaa at position 6 is alpha-methyl-Phe(2F); (13)..(13) Xaa at position 13 is alpha-methyl-Leu; MOD_RES (17)..(17) Lys at position 17 is chemically modified by conjugation of the epsilon-amino group of the Lys side chain with (2-[2-(2-amino-ethoxy)-ethoxy]-acetyl)2-CO-(CH2)18-CO2H; (20)..(20) Xaa at position 20 is Aib; (24)..(24) Xaa at position 24 is D-Gl) [Peptide 215]",4.34
8,Y-Aib-EGT-αMeF(2F)-TSDHSI-αMeL-LDEK((2-[2-(2-Amino-ethoxy)-ethoxy]-acetyl)2-(γGlu)-CO—(CH2)16—CO2H)AQ-Aib-HFI-(D-Glu)-YLIEGG-NH2 (Y[Aib]EGT[αMePhe(2-F)]TSDHSI[αMeL]LDEK([AEEA-AEEA-γGlu-C18 diacid])AQ[Aib]HFI[dE]YLIEGG-NH2; N-terminus assumed; SMILES CC[C@H](C)[C@H](NC(=O)[C@H](CC(C)C)NC(=O)[C@H](Cc1ccc(O)cc1)NC(=O)[C@@H](CCC(=O)O)NC(=O)[C@@H](NC(=O)[C@H](Cc1ccccc1)NC(=O)[C@H](Cc1c[nH]cn1)NC(=O)C(C)(C)NC(=O)[C@H](CCC(N)=O)NC(=O)[C@H](C)NC(=O)[C@H](CCCCNC(=O)COCCOCCNC(=O)COCCOCCNC(=O)CC[C@H](NC(=O)CCCCCCCCCCCCCCCCC(=O)O)C(=O)O)NC(=O)[C@H](CCC(=O)O)NC(=O)[C@H](CC(=O)O)NC(=O)[C@H](CC(C)C)NC(=O)[C@](C)(CC(C)C)NC(=O)[C@@H](NC(=O)[C@H](CO)NC(=O)[C@H](Cc1c[nH]cn1)NC(=O)[C@H](CC(=O)O)NC(=O)[C@H](CO)NC(=O)[C@@H](NC(=O)[C@](C)(Cc1ccccc1F)NC(=O)[C@@H](NC(=O)CNC(=O)[C@H](CCC(=O)O)NC(=O)C(C)(C)NC(=O)[C@@H](N)Cc1ccc(O)cc1)[C@@H](C)O)[C@@H](C)O)[C@@H](C)CC)[C@@H](C)CC)C(=O)N[C@@H](CCC(=O)O)C(=O)NCC(=O)NCC(N)=O) [Peptide 180],6.27
